# Assay results from the supplement of paper PMC9732359.
# ± gives the uncertainty stated by the source.
# Test: protein stability index of a GFP-peptide fusion (yeast GPS) (PSI 1-4); higher = more stable; sorted into four equal gates, so the index is relative within each strain
# Settings: pdr5∆
# Summary of the method: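 Mid-log yeast cultures in leucine-free medium, carrying a pooled plasmid library, were sorted into four equal gates by their GFP/Cherry fluorescence ratio. Each plasmid expressed Cherry along with GFP fused upstream of a tiled 17-residue yeast protein peptide. Plasmids recovered from each gate were PCR-amplified and Illumina-sequenced, with reads assigned to strains by barcodes. The protein stability index was obtained by summing each gate's read frequency weighted by its gate number.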
row,Sequence,protein stability index
1,AICRNHIMEPCIECQPK [HRT1],3.23 ± 0.13

# Same assay, conditions: san1∆
row,Sequence,protein stability index
1,AAGALFVSSGFDTSIKL [RPN14],2.18 ± 0.064
2,AAGIWTCSCCKKTVAGG [RPL43A],3.02 ± 0.097
3,AAGSYYVEAQHKLVFVV [RPL7A],2.26 ± 0.069
4,AAKLKQTENDLKDIEAR [RPT1],2.46 ± 0.19
5,AAKTRSYNWGAKAKRRH [RPL37A],3 ± 0.099
6,AALAPKIGPLGLSPKKV [RPL12A],3.02 ± 0.097
7,AAQAQAQAQAQAQAQAQ [GAL11],2.65 ± 0.04
8,AARDNKKTRIIPRHLQL [HTA1],3.37 ± 0.13
9,AARVDIGQIIFSVRTKD [RPL10],2.78 ± 0.12
10,AASTPTTTATPHANPIT [PGD1],2.92 ± 0.038
11,ADIENSTSGDPSEFHCL [SSN2],3.21 ± 0.12
12,ADINLEESIRESLQKRE [SIR3],3.09 ± 0.12
13,ADNVDKILEQFEYVLYP [FAS2],2.17 ± 0.094
14,ADRNDDDEGSFAQENSE [SRB6],2.6 ± 0.17
15,ADTLDPALLRPGRLDRK [RPT3],3.26 ± 0.23
16,ADYRLILTGTPLQNNLP [SNF2],1.65 ± 0.058
17,AEDDVIIPQDILDCVVT [YJR042W/NUP85],3.36 ± 0.04
18,AELDLMSGILHCEDKDY [RPN6],3 ± 0.046
19,AELFNNDIKLFVDDTNV [PRP8],2.46 ± 0.054
20,AENSHTQPKATSTGTTI [PUP1],3.07 ± 0.06
21,AETKSYDSRGVGEMKLL [YLR335W/NUP2],2.25 ± 0.097

row,Sequence,protein stability index
1,AETLCFTVNVLYPDSSS [RPN3],2.97 ± 0.052
2,AEVQSLFQDGSASLHTR [RRP4],2.85 ± 0.1
3,AFDKHMNLVLNECIEER [SMB1],2.68 ± 0.16
4,AFFHLFASLRVLPDADV [YJL039C/NUP192],1.36 ± 0.14
5,AFRRIMISEVPSVAAEY [RPC40],1.51 ± 0.079
6,AFTRKQANQVKRHSYAQ [RPS1A],2.03 ± 0.034
7,AFVPKKRKTNIIMFVGL [SRP54],1.86 ± 0.18
8,AGCKIDNVDDIGEFNVS [YDL088C/ASM4],2.94 ± 0.096
9,AGDIQLQYGWKVERHIM [RPO21],1.36 ± 0.19
10,AGENAPSIVFIDEIDAI [RPT2],1.74 ± 0.18
11,AGETLILDGLTVRLVNL [SRB2],2.46 ± 0.073
12,AGGEAGEAEAEKEEEEA [RPP1A],2.54 ± 0.22
13,AGKFELLDRILPKLKAT [SNF2],1.77 ± 0.19
14,AGNIKCRNDAVNWLAYT [BRR2],3.16 ± 0.034
15,AGTKITICIELKTVLHN [RGR1],1.39 ± 0.13
16,AHMSIGCLHKGKLISNL [YML031W/NDC1],2.14 ± 0.15
17,AHMWPRVHDQPLIWQLL [POP3],1.44 ± 0.23
18,AHRIMLTNILRMMGCVK [FAS2],1.9 ± 0.12
19,AHRVRDLMDEELRKHAQ [SKI6],2.83 ± 0.12
20,AICRNHIMEPCIECQPK [HRT1],2.17 ± 0.094

# Same assay, conditions: ubr1∆
row,Sequence,protein stability index
1,AAGALFVSSGFDTSIKL [RPN14],2.49 ± 0.035
2,AAGIWTCSCCKKTVAGG [RPL43A],2.99 ± 0.074
3,AAGSYYVEAQHKLVFVV [RPL7A],2.4 ± 0.044
4,AAKLKQTENDLKDIEAR [RPT1],3.1 ± 0.087
5,AAKTRSYNWGAKAKRRH [RPL37A],3.49 ± 0.085
6,AALAPKIGPLGLSPKKV [RPL12A],3.26 ± 0.07
7,AAQAQAQAQAQAQAQAQ [GAL11],2.95 ± 0.068
8,AARDNKKTRIIPRHLQL [HTA1],3.15 ± 0.19
9,AAREKKIRELEAELSST [YIL149C/MLP2],2.89 ± 0.15
10,AARVDIGQIIFSVRTKD [RPL10],2.04 ± 0.057
11,AASTPTTTATPHANPIT [PGD1],2.916 ± 0.026
12,ADIENSTSGDPSEFHCL [SSN2],3.29 ± 0.12
13,ADINLEESIRESLQKRE [SIR3],3.36 ± 0.062
14,ADNVDKILEQFEYVLYP [FAS2],2.57 ± 0.08
15,ADRNDDDEGSFAQENSE [SRB6],3.22 ± 0.12
16,ADTLDPALLRPGRLDRK [RPT3],3.3 ± 0.2
17,ADYRLILTGTPLQNNLP [SNF2],2.03 ± 0.037
18,AEDDVIIPQDILDCVVT [YJR042W/NUP85],2.94 ± 0.07
19,AELDLMSGILHCEDKDY [RPN6],3.13 ± 0.038
20,AELFNNDIKLFVDDTNV [PRP8],2.13 ± 0.034
21,AENSHTQPKATSTGTTI [PUP1],3.26 ± 0.057

row,Sequence,protein stability index
1,AETKSYDSRGVGEMKLL [YLR335W/NUP2],2.44 ± 0.079
2,AETLCFTVNVLYPDSSS [RPN3],2.87 ± 0.041
3,AFDKHMNLVLNECIEER [SMB1],2.56 ± 0.051
4,AFFHLFASLRVLPDADV [YJL039C/NUP192],1.97 ± 0.066
5,AFRRIMISEVPSVAAEY [RPC40],1.25 ± 0.049
6,AFTRKQANQVKRHSYAQ [RPS1A],2.01 ± 0.027
7,AFVPKKRKTNIIMFVGL [SRP54],2.26 ± 0.051
8,AGCKIDNVDDIGEFNVS [YDL088C/ASM4],3.06 ± 0.14
9,AGDIQLQYGWKVERHIM [RPO21],1.24 ± 0.098
10,AGENAPSIVFIDEIDAI [RPT2],1.86 ± 0.14
11,AGETLILDGLTVRLVNL [SRB2],2.66 ± 0.052
12,AGGEAGEAEAEKEEEEA [RPP1A],3.5 ± 0.18
13,AGKFELLDRILPKLKAT [SNF2],1.95 ± 0.17
14,AGNIKCRNDAVNWLAYT [BRR2],3.24 ± 0.035
15,AGTKITICIELKTVLHN [RGR1],1.49 ± 0.09
16,AHMSIGCLHKGKLISNL [YML031W/NDC1],1.83 ± 0.065
17,AHMWPRVHDQPLIWQLL [POP3],1.51 ± 0.11
18,AHRIMLTNILRMMGCVK [FAS2],2.41 ± 0.19
19,AHRVRDLMDEELRKHAQ [SKI6],3.29 ± 0.064
20,AICRNHIMEPCIECQPK [HRT1],2.67 ± 0.074
